Results taken from US10782287B2, “Enzyme coupled assay for quantification of protein and peptide binding by SAMDI mass spectrometry” (NORTHWESTERN UNIVERSITY, priority 2015, dated 2020).
Ends that are not written are not given here.

Biological target: T1, Cbx1 fusion protein (Cbx1 chromodomain-KDAC8) (Homo sapiens, UniProt P83916)
T1 construct: constructing E. coli-based vectors containing chromodomains and KDAC8 separated by a short linker; made in house; host or cells: E. coli
Experiment: Enzyme-coupled SAMDI mass spectrometry assay: deacetylation of an immobilized KDAC8 substrate reports chromodomain binding to a co-immobilized ligand
Type: biochemical
Conditions: monolayer presenting substrate GMK^AcFGC and the ligand; when the chromodomain binds its ligand on the monolayer
Text: In this example, two peptides—a methylated peptide that binds the chromodomain and an acetylated peptide that is a substrate for the deacetylase—are immobilized to a monolayer presenting maleimide groups against a background of tri(ethylene glycol) groups. The density of the maleimide group is controlled precisely (Houseman et al., Langmuir 19: 1522-1531 (2003)) and the relative densities of the two peptides are controlled either by immobilizing them as a mixture at defined concentrations or by immobilizing the first for a time that gives incomplete immobilization followed by addition of the second peptide. Fusion proteins are prepared by first constructing E. coli-based vectors containing chromodomains and KDAC8 separated by a short linker. The vector is designed to contain a restriction site allowing for the insertion of any chromodomain of interest containing the complementary restriction sites. In this way, the same plasmid containing KDAC8 may be used to rapidly create several chromodomain fusions. Monolayers are treated with the chromodomain-KDAC8 fusion protein for different times, the reactions are stopped by rinsing and the spots are analyzed by SAMDI mass spectrometry to identify an initial velocity for the reaction, υo, which is the measurable parameter that is used to assess the protein-ligand interaction. […]

T1 sequence (P83916 21-79 limits assumed): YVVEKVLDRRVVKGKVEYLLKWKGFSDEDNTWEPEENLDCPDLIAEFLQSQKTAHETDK

QTARK^MeSTGC: methylated H3K9-based peptide ligand for the Cbx1 chromodomain, immobilized on the monolayer via cysteine (QTARK(Me)STGC; also: immobilized on the monolayer via cysteine)
rate acceleration for the deacetylation reaction: approximately 20 fold
